Assay results: US7033773B1, “Screening assays for G protein coupled receptor agonists and antagonists” (The General Hospital Corporation, priority 1997, dated 2006)
Where no end group is shown, it is not given here.

Legend:
human PTH/PTHrP receptor [1] = target: T1, human PTH/PTHrP receptor (Homo sapiens, UniProt Q03431); assay: Cellular cAMP accumulation in LLC-PK1 cells expressing human PTHR; format: cell-based; design: transfected with a full-length human PTH/PTHrP receptor cDNA; expressed in transfected cells; details: HKRK B28 cells; for activation of AC (in words): similar in HKRK B7
T1 sequence (Q03431 27-593): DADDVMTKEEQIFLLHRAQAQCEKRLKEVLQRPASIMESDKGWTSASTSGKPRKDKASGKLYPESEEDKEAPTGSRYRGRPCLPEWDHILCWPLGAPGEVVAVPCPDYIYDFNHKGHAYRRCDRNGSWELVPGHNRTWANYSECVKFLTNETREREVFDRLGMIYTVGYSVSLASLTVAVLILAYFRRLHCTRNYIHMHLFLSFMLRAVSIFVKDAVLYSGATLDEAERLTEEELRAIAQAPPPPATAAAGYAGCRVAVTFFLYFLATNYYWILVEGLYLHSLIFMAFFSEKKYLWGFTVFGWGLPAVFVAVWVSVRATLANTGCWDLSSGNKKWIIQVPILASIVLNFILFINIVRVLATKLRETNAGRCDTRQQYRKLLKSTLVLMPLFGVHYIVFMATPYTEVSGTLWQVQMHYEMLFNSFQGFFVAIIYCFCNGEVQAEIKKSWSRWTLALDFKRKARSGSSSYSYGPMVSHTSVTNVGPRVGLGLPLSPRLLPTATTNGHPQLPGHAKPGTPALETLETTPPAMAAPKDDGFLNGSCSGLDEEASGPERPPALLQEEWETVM
Experimental: Cells were seeded into 24-well plates at a density of 2.5×10^5 cells/well and cultured for a further 2 days before study. The cells were rinsed once with 0.5 ml of ice-cold Buffer B [10 mM HEPES (pH 7.4), 130 mM NaCl, 5 mM KCl, 1.2 mM CaCl2, 1 mM MgCl2, 1.2 mM Na2HPO^4 5 mM glucose, and 0.1% heat-inactivated BSA] supplemented with 1 mM isobtylmethylxanthine (IBMX), and placed on ice. Treatments were added to each well in 0.25 ml of IBMX-supplemented Buffer B, after which the plates were incubated at 37° C. for 15 min. The buffer then was rapidly aspirated, the plates were rapidly transferred onto liquid nitrogen, and the frozen monolayers were subsequently thawed directly into 0.5 ml of 50 mM HCl. The extracted cAMP then was measured using a commercial RIA kit (Dupont-New England Nuclear, Boston, Mass.). Results were expressed as fold-basal, where basal levels ranged between 38 and 128 pmol/mg protein/15 min. The basal level of cAMP accumulation in native LLC-PK1 cells was not consistently altered in subclones that expressed wild type PTH/PTHrp receptors.
Maximal PTH-dependent cAMP accumulation was assessed in the human PTHR-transfected LLC-PK1 subclones following incubation for 15 min with a high concentration (1000 nM) of hPTH(1-34) (Table 1). As reported previously for LLC-PK1 cells that stably expressed rat PTHRs (Guo, J., et al., Endocrinology 136:3884-3891 (1995)), the maximal adenylyl cyclase response was relatively independent of the surface density of human PTHRs above a relatively low threshold (relative to that required for PLC activation—see below). In the case of the human PTHR, however, this threshold for saturation of maximal AC activation appeared to lie between 120,000 and 280,000 (Table 1), which is at least 6 to 10-fold higher than that previously observed for the rat PTHR (Guo, J., et al., Endocrinology 136:3884-3891 (1995)).

human PTH/PTHrP receptor [2] = target: T1, human PTH/PTHrP receptor; assay: IP3 production (PLC activation) in LLC-PK1 cells expressing human PTHR; format: cell-based; design: transfected with a full-length human PTH/PTHrP receptor cDNA; expressed in transfected cells; details: for activation of PLC (in words): 1000 nM, HKRK B28 at 4 min and HKRK B7 at 30 min; for formation of IP3 (activation of phospholipase-C): peptide 1000 nM, mean±SEM
Experimental: Cells were seeded into 24-well plates at a density of 2.5×10^5 cells/well and cultured for a further 2 days before study. The cells were labeled at 37° C. for 16 h before assay with 3 uCi/ml of [^3H]myo-inositol in assay medium (serum- and inositol-free DMEM (GIBCO-BRL, Grand Island, N.Y.) supplemented with 0.1% BSA). After washing the cells with prewarmed assay medium containing 30 mM LiCl, they were incubated with 0.25 ml of assay medium containing 30 mM LiCl and stimulators (or vehicle) at 37° C. for various intervals(1-30 min). IP3 formation was arrested by aspiration and immediate addition of 0.5 ml of ice-cold 5% TCA. The acid extracts then were extracted twice with two volumes of water-saturated ether and adjusted to pH 7.4 with concentrated NaOH and Tris base (final concentration=10 mM) prior to chromatography on AG 1×8 anion-exchange columns (Bio-Rad, Richmond, Calif.), as previously described (Guo, J., et al., Endocrinology 136:3884-3891 (1995)). After eluting other fractions (free [^3H]myo-inositol, glycerophosphate inositol, IP1, and IP2), IP3 fractions were collected and their content of radioactivity was determined by liquid scintillation spectrometry (Beckman, model LS 6000IC).
HKRK B7 cells and HKRK B28 cells, previously loaded with [^3H]myo-inositol, were incubated with each peptide (1000 nM) for 30 min or 4 min, respectively. The formation of IP3 is expressed as a percentage of the amount measured in vehicle-treated controls. Values shown are means±SEM of triplicate determinations.

human PTH/PTHrP receptor [3] = target: T1, human PTH/PTHrP receptor; assay: Cellular phosphate uptake in LLC-PK1 cells expressing human PTHR; format: cell-based; design: transfected with a full-length human PTH/PTHrP receptor cDNA; expressed in transfected cells; details: HKRK B28 and HKRK B7 cells; peptides 1000 nM, 6 hr
Experimental: FIG. 8. Regulation of phosphate uptake by PTH in HKRK B7 and HKRK B28 cells. […] Results are expressed as percentage of basal, and each bar represents the mean±SEM of a representative experiment performed in triplicate. Similar results were obtained from at least 5 individual experiments. Cells were seeded into 24-well plates at a density of 2.5×10^5 cells/well and cultured for a further 2 days before study. Twenty four hours before assay, cells were refed with 0.5 ml of DMEM containing 0.1% BSA. The next day, cells were refed with serum-free medium (DMEM+0.1% BSA) containing drugs or peptides, and the incubations were continued at 37° C. under 5% CO2 in air for another 6 hr. Cells then were washed with prewarmed Buffer B without BSA and Na2HPO4 and then were incubated at 37° C. for 5 min in 0.25 ml of the same buffer containing [^32P]orthophosphate (4 uCi/ml) and 0.1 mM Na2HPO4. Phosphate uptake was arrested by adding 1 ml of ice-cold sodium-free “stop buffer” [10 mM HEPES (pH 7.4), 140 mM choline chloride, and 5 mM sodium arsenate], followed by two further washes with same buffer. The drained cell layer then was solubilized in 0.5 ml of Lysis Buffer, and cell-associated radioactivity was determined by Cerenkov counting, as previously described (Guo, J., et al., Endocrinology 136:3884-3891 (1995)).

human PTH/PTHrP receptor [4] = target: T1, human PTH/PTHrP receptor; assay: Urokinase-type plasminogen activator (u-PA) secretion bioassay in LLC-PK1 cells expressing human PTHR; details: for secreted u-PA: peptide 1000 nM, 16 hr, mean±SEM
Experimental: Cells were seeded into 96-well plates at a density of 6×10^4 cells/well and used the following day. The cells were washed once with 0.2 ml and then refed with 0.1 ml of prewarmed DMEM containing 0.05% BSA. After adding each stimulator, plates were returned to the incubator at 37° C. for 16 h. Conditioned medium (5 ul) then was transferred from each well to a clean microplate. […] Activity was expressed in Ploug units/well, using purified human urokinase (Calbiochem) as a standard.
Cells were incubated with the indicated peptides (1000 nM) for 16 hr before measurement of secreted u-PA present in the medium, which was expressed as a percentage of the activity measured in vehicle-treated controls. Values shown are means±SEM of triplicate determinations.

human PTH/PTHrP receptor [5] = target: T1, human PTH/PTHrP receptor; assay: Cytosolic free calcium (fura-2) in LLC-PK1 cells expressing human PTHR; details: 100 nM peptide; HKRK B7 cells
Experimental: Cytosolic free calcium was measured in fura 2AM-loaded confluent monolayers of cells.
Cytosolic free calcium was measured by dual fluorescence in cells loaded with the Ca^2+-sensitive intracellular probe fura-2. Cells were seeded onto glass coverslips at a density of 40,000-600,000/cm^2 and incubated for 2 days as described above. Coverslips were washed twice with PBS before loading in phosphate-free Buffer B containing 4 uM of fura-2/AM (Molecular Probes, Eugene, Oreg.) for 30 min at room temperature (22° C.). After washing twice with fura-free Buffer B, the coverslips were mounted in a cuvette containing 2 ml of phosphate-free Buffer B at 37° C. and the emission at 510 nm in response to alternating excitation at 340 and 380 nm was monitored using a ratiometric PTI Deltascan fluorescence spectrometer with excitation and emission bandwidths of 2 nm. After achieving a stable baseline, agonists were introduced by exchange into 2 ml of fresh buffer to which 10-20 ul of concentrated agonist stock (or vehicle alone) had been added. Peptide stocks were prepared in 0.1% trifluoroacetic acid, ionomycin and phorbol esters were dissolved in dimethyl sulfoxide and all other additives were prepared in water. Maximum and minimum fluorescence signals were obtained by exposure to modified buffers containing 1 uM ionomycin plus 20 mM calcium or 2 mM EGTA in the nominal absence of calcium, respectively, and autofluorescence was estimated from signals obtained in the presence of ionomycin plus 2.5 mM MnCl2.

[6] = HKRK B7 cells, 30 min stimulation
[7] = HKRK B28 cells, 4 min stimulation

formation of IP3 (activation of phospholipase-C) (human PTH/PTHrP receptor [2]; [6]) | formation of IP3 (activation of phospholipase-C) (human PTH/PTHrP receptor [2]; [7]) | maximal activation of phosphate uptake (in words) (human PTH/PTHrP receptor [3]) | u-PA bioassay activity (in words) (human PTH/PTHrP receptor [4]; HKRK B7 and HKRK B28 cells) | concentrations at which AC was stimulated significantly (human PTH/PTHrP receptor [1]) [nM] | cAMP response as % of the maximal response to hPTH(1-34) (human PTH/PTHrP receptor [1]; 1000 nM peptide) [%] | u-PA bioassay activity, % of maximal response to hPTH(1-34) (human PTH/PTHrP receptor [4]; HKRK B7 and HKRK B28 cells) | Substance | activation of AC (in words) (human PTH/PTHrP receptor [1]) | activation of PLC (in words) (human PTH/PTHrP receptor [2]) | secreted u-PA (human PTH/PTHrP receptor [4]; HKRK B7 cells) | secreted u-PA (human PTH/PTHrP receptor [4]; HKRK B28 cells) | cytosolic free calcium transients (human PTH/PTHrP receptor [5])
122 ± 7 percentage of vehicle-treated | 92 ± 10 percentage of vehicle-treated | inactive | inactive |  |  |  | hPTH(7-34) (LMHNLGKHLNSMERVEWLRKKLQDVHNF; Parathyroid hormone; UniProt P01270 38-65, looked up, fragment) | failed to activate AC at all concentrations tested | neither hPTH(3-34) nor hPTH(7-34) activated PLC significantly | 1 ± 1 percentage of the activity measured in vehicle-treated controls | 0 ± 2 percentage of the activity measured in vehicle-treated controls | neither hPTH(3-34) nor hPTH(7-34) (100 nM) induced this response
103 ± 1 percentage of vehicle-treated | 85 ± 9 percentage of vehicle-treated | inactive |  | ≥ 10 | 16 | 50-60% | hPTH(3-34) (SEIQLMHNLGKHLNSMERVEWLRKKLQDVHNF-NH2; UniProt P01270 34-65, looked up, fragment) |  | neither hPTH(3-34) nor hPTH(7-34) activated PLC significantly | 57 ± 3 percentage of the activity measured in vehicle-treated controls | 50 ± 1 percentage of the activity measured in vehicle-treated controls | neither hPTH(3-34) nor hPTH(7-34) (100 nM) induced this response

Substance | formation of IP3 (activation of phospholipase-C) (human PTH/PTHrP receptor [2]; [6]) | formation of IP3 (activation of phospholipase-C) (human PTH/PTHrP receptor [2]; [7]) | maximal activation of phosphate uptake (in words) (human PTH/PTHrP receptor [3]) | u-PA bioassay activity (in words) (human PTH/PTHrP receptor [4]; HKRK B7 and HKRK B28 cells) | concentrations at which AC was stimulated significantly (human PTH/PTHrP receptor [1]) [nM] | cAMP response as % of the maximal response to hPTH(1-34) (human PTH/PTHrP receptor [1]; 1000 nM peptide) [%] | u-PA bioassay activity, % of maximal response to hPTH(1-34) (human PTH/PTHrP receptor [4]; HKRK B7 and HKRK B28 cells) | activation of AC (in words) (human PTH/PTHrP receptor [1]) | activation of PLC (in words) (human PTH/PTHrP receptor [2]) | secreted u-PA (human PTH/PTHrP receptor [4]; HKRK B7 cells) | secreted u-PA (human PTH/PTHrP receptor [4]; HKRK B28 cells) | cytosolic free calcium transients (human PTH/PTHrP receptor [5])
hPTHrp(1-36) | 93 ± 6 percentage of vehicle-treated | 160 ± 9 percentage of vehicle-treated | comparable maximal activation of phosphate uptake |  |  |  |  | indistinguishable from that to hPTH(1-34) | stimulated PLC equivalently to hPTH(1-34) | 88 ± 5 percentage of the activity measured in vehicle-treated controls | 97 ± 9 percentage of the activity measured in vehicle-treated controls | 
